The source of these data is patent publication US12036234B2, “Heparin conjugated to collagen-binding peptides for targeting to biological and synthetic tissues” (Northwestern University, priority 2017, dated 2024).

For the assay, the target named is collagen IV (Mus musculus, UniProt P02463+P08122). The assay can be described thus: Cy5 conjugate binding to surface coated collagen IV. The note with it: 30 mg/ml, improved batch, 24 hour incubation. The protocol: Heparin(Cy5)-CBP conjugates were synthesized using N-(3-dimethylaminopropyl)-N′-ethylcarbodiimide/N-hydroxyl succinimide (EDC/NHS) chemistry (1,2). Briefly, 1 mM of heparin sodium salt or fluorescently pre-conjugated Heparin(Cyanine5) (Hep-Cy5) mixed with 120 mM EDC and 60 mM NHS in 2-(N-morpholino) ethanesulfonic acid (MES) buffer at pH 6.5. This was rocked for 4 hours at 20° C. 1 mM of […] binding peptide (CQDSETRTFY (SEQ ID NO:1), CBP) or a scrambled sequence (CDEFQRSTTY (SEQ ID NO:2), CBPi) was added, and allowed to rock overnight at 4° C. This mixture was dialyzed to exclude molecules […] 3.5 kDa and lyophilized to dry. Four molecular assays were used to assess the functional synthesis of these conjugates. An Ellman's assay is capable of colormetrically labeling the thiol containing cysteine amino acid, and was used to assess the cysteine molar quantity of the whole conjugate (3). A dimethylmethylene blue assay was used to stain the glycosaminoglycan present in heparin conjugates to determine the heparin molar quantity (4). A colormetric kit was used to assess clotting via factor Xa (5). Effective CBP related binding of the conjugate was measured via the Cy5 fluorophore, using a 24 hour incubation with surface coated collagen IV (6). […]
collagen IV, sequence (P02463 173-1669): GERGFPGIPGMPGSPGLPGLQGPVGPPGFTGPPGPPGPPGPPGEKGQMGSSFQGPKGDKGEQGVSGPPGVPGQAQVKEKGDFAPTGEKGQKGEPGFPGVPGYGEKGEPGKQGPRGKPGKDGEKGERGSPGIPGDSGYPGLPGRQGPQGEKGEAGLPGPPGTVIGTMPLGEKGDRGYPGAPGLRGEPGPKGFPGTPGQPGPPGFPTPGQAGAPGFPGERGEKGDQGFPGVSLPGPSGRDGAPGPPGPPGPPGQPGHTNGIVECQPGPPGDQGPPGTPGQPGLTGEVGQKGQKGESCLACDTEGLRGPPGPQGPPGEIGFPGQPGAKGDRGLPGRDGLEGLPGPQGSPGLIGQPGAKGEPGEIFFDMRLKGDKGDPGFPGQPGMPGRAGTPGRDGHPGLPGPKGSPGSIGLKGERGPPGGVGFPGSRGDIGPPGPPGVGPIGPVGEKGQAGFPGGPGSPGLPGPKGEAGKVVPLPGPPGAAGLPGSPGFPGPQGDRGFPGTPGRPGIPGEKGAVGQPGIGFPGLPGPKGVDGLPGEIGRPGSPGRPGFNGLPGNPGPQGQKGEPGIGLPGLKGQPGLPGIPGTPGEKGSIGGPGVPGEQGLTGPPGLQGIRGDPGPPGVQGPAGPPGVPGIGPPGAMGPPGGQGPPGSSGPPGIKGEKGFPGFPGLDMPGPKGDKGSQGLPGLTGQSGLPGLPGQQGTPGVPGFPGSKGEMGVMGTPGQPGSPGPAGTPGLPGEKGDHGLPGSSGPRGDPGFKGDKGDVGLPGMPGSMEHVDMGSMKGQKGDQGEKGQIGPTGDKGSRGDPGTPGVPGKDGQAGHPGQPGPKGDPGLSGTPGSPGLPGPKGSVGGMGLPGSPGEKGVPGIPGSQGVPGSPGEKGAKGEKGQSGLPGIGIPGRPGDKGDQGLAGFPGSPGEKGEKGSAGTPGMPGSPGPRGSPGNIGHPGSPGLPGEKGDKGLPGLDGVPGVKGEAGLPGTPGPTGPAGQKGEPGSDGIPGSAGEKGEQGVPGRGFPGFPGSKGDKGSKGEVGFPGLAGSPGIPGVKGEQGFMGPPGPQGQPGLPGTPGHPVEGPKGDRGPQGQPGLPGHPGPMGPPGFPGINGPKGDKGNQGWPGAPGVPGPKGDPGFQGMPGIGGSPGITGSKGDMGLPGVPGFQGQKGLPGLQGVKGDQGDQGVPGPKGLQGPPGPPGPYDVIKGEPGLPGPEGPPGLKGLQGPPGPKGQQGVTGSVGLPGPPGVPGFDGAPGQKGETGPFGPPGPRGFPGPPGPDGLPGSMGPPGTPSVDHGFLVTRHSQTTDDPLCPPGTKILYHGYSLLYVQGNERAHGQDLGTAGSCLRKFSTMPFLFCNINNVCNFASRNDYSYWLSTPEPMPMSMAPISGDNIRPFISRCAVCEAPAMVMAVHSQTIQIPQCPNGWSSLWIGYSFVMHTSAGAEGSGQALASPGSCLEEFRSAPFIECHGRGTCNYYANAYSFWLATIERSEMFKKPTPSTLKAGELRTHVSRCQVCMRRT
collagen IV, sequence (P08122 184-1707): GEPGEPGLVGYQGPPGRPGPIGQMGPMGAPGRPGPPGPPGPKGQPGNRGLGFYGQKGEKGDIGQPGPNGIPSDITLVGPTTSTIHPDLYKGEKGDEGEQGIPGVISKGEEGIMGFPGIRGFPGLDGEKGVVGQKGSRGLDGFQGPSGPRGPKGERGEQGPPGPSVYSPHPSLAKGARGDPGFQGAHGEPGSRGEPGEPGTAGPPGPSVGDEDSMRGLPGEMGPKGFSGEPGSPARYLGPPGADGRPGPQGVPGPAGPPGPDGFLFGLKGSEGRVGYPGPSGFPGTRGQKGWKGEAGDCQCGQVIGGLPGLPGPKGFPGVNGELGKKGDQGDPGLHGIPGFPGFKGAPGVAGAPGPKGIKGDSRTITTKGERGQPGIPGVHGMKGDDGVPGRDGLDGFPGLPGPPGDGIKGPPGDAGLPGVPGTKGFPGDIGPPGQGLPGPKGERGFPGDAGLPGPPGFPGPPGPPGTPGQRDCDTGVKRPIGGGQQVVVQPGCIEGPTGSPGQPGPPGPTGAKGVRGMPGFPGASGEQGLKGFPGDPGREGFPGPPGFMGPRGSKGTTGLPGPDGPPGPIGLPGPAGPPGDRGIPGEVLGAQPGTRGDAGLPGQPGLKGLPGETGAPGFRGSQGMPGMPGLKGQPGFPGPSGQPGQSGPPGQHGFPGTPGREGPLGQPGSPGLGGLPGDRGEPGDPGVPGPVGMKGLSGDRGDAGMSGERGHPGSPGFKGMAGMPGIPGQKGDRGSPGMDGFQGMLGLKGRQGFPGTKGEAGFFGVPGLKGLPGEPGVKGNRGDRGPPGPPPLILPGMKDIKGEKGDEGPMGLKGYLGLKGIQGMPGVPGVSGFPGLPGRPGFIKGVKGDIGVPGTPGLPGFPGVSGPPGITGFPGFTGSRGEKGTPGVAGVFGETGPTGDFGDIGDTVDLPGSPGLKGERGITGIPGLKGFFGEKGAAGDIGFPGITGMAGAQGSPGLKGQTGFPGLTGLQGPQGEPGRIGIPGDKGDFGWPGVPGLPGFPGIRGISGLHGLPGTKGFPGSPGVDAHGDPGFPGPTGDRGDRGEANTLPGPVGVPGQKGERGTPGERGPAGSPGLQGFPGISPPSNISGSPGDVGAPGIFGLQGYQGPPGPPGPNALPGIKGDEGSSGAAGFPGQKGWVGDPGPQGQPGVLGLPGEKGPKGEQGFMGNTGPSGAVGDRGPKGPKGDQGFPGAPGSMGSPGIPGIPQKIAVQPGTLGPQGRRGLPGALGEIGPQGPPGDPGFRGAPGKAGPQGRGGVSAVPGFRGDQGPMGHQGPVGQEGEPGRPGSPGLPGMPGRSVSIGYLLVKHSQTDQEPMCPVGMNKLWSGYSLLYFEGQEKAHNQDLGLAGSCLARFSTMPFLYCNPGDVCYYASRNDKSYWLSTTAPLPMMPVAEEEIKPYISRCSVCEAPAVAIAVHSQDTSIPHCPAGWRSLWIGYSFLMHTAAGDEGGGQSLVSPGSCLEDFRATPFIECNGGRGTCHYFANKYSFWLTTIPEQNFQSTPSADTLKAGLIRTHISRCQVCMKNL

Ends that are not written are not given here.

With “CBP-Hep(Cy5): Cy5-labelled heparin conjugated with CBP by EDC/NHS chemistry (CQDSETRTFY; also: conjugated to Cy5-labelled heparin by EDC/NHS, place not given here)”, the “binding to collagen IV relative to scrambled CBPi control” value is listed as “four times more”.
